Source: patent US20040204434A1, “Compounds and methods for lowering the abuse potential and extending the duration of action of a drug” (Controlled Chemicals Inc., priority 2003, published 2004)

Columns and labels:
[1] = Release of oxycodone from prodrugs without pancreatin; conditions: 37° C., pH 7.4, no pancreatin
Pancreatin = assay: Effect of pancreatin on release of oxycodone from prodrugs; conditions: in words
[2] = Nonenzymatic hydrolysis of oxycodone ester prodrugs to oxycodone in buffered solution (HPLC); type: physicochemical; conditions: pH 7, 37° C.
μ (rat) opioid receptor [3] = biological target: T1, μ (rat) opioid receptor (Rattus norvegicus, UniProt P33535); assay: Inhibition of radio labeled ligand binding to membranes from C6 rat glioma cells expressing recombinant μ opioid receptor; conditions: in words
T1 construct: expressed in transfected cells; host or cells: C6 rat glioma cells (membranes)
Method: (§1) Opioid-agonist activity was evaluated from the ability of the test article to stimulate [^35S]-GTP's binding.

μ (rat) opioid receptor [4] = biological target: T1, μ (rat) opioid receptor; assay: Opioid-agonist activity: stimulation of [35S]-GTP's binding; type: biochemical
Method: as §1

T1 sequence (P33535 whole entry): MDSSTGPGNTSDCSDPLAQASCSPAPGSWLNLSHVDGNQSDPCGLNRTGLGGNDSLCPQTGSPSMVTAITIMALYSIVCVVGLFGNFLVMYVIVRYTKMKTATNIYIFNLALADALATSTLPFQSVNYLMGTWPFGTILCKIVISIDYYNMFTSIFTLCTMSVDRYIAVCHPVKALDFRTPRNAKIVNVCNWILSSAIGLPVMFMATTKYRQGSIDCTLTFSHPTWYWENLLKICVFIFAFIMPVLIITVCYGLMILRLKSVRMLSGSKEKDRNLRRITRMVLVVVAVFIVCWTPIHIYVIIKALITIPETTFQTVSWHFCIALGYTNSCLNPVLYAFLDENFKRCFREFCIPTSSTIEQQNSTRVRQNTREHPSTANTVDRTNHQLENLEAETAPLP

| Molecule | Half-Life for Hydrolysis, no pancreatin [1] [h] | Effect of pancreatic enzymes on liberation of oxycodone from prodrug (Pancreatin) | also measured |
| --- | --- | --- | --- |
| poly(ethylene glycol), Mr 2,000, methyl ether, N-carbonylglutamic acid 1-(3-methoxy-14-hydroxy-6,7-didehydro-4,5α-epoxy-17-methylmorphinan-6-yl) ester [Compound 4] | 5.5 | do not markedly effect |  |
| COc1ccc2c3c1OC1C(OC(C)=O)=CCC4(O)C(C2)N(C)CCC314 (stereo not shown) [6-enolacetate] |  |  | half-life for hydrolysis [2]: ~96 h |
| COc1ccc2c3c1O[C@H]1C(=O)CC[C@@]4(OC(C)=O)[C@@H](C2)N(C)CC[C@]314 [14-acetate ester of oxycodone] |  |  | half-life for the hydrolysis [2]: ~0.333 h |
| poly(ethylene glycol), Mr 2,000, methyl ether, carboxy ((3-methoxy-14-hydroxy-6,7-didehydro-4,5α-epoxy-17-methylmorphinan-6-yl) ester) methyl ether [Compound 8] | 6.9 | markedly enhanced |  |
| poly(ethylene glycol), Mr 2,000, methyl ether, carbonylimidodiacetic acid mono-(3-methoxy-14-hydroxy-6,7-didehydro-4,5α-epoxy-17-methylmorphinan-6-yl) ester [Compound 5] | 11 | do not markedly effect |  |
| COc1ccc2c3c1O[C@H]1C(OC(=O)C(CCC(=O)O)NC(=O)OCc4ccccc4)=CC[C@@]4(O)[C@@H](C2)N(C)CC[C@]314 (stereo partly drawn) [Compound 1, 2-(benzyloxycarbonylamino)-pentanedioic acid 1-(3-methoxy-14-hydroxy-6,7-didehydro-4,5α-epoxy-17-methylmorphinan-6-yl) ester] |  |  | affinity for the μ receptor relative to oxycodone (μ (rat) opioid receptor [3]): substantially lower; EC50 (μ (rat) opioid receptor [4]): 3.38 ± 0.29 µM |
